The target in experiment [1] is MAdV-2.IXeGFP virus particle (replication competent MAdV-2 with enhanced green fluorescent protein fused to minor capsid protein IX) (mouse adenovirus 2 | not stated).
Experiment [2] deals with mouse adenovirus 2 (MAdV-2), wild type virus particle (mouse adenovirus 2).
For experiment [3], the target named is MAdV-2.IXeGFP virus particle (replication competent MAdV-2 with enhanced green fluorescent protein fused to minor capsid protein IX) (mouse adenovirus 2 | not stated). The source holds these as a separate data set.

This passage reports infection of CMT-93 cells by MAdV-2.IXeGFP pre-incubated with cryptdin 2 (dose-responsive over the indicated concentrations), relative to infection without defensin, infection of CMT-93 cells by MAdV-2 pre-incubated with cryptdin 2 (dose-responsive over the indicated concentrations), relative to infection without defensin and infection of CMT-93 cells by MAdV-2.IXeGFP pre-incubated with cryptdin 3 (indicated concentrations), relative to infection without defensin results from publication PMC5489213.

Consider Cryptdin 2 (peptide), for which the infection of CMT-93 cells by MAdV-2.IXeGFP pre-incubated with cryptdin 2 (dose-responsive over the indicated concentrations), relative to infection without defensin in experiment [1] was 2.4 fold. In experiment [2], this molecule registered an infection of CMT-93 cells by MAdV-2 pre-incubated with cryptdin 2 (dose-responsive over the indicated concentrations), relative to infection without defensin of 1.8 fold.

Take LRDLVCYCRKRGCKRRERMNGTCRKGHLMYTLCCR [Cryptdin 3]: in experiment [3], the infection of CMT-93 cells by MAdV-2.IXeGFP pre-incubated with cryptdin 3 (indicated concentrations), relative to infection without defensin is 1.7 fold.
